# Results taken from publication doi:10.1101/2022.06.08.495335.
# Molecular target: clathrin N-terminal domain (NTD) (UniProt Q00610)
# Assay: fluorescence polarisation + ITC
# UniProt Q00610, sequence (Q00610 1-364): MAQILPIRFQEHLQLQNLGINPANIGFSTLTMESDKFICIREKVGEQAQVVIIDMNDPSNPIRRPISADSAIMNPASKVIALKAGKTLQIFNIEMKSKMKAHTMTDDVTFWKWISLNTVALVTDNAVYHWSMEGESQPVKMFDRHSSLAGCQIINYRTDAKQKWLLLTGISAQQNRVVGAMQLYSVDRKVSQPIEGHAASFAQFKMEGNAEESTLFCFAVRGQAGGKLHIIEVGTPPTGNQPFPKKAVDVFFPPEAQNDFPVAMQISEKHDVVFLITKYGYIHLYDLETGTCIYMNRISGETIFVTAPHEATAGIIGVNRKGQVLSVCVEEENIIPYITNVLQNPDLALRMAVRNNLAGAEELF
substance,measurement,value
HURP_(832-846) phosphorylated peptide (pS839) (from UniProt Q15398 832-846),fold increase in affinity against the wild-type peptide,20 fold
